UPmax data for 3 molecules are collected here from patent publication US12091391B2, “Reagents and methods for bioorthogonal labeling of biomolecules in living cells” (Oregon State University, priority 2015, dated 2024).

The assay in a line: UP50 characterization of select synthetases (GFP fluorescence versus Tet-v3.0 concentration). The assay is classed as cell-based, E. coli. Conditions: fluorescence normalized to optical density, amino acid Tet-v3.0 (methyl). An excerpt: The UP50 value is a measure of amino acid concentration at which cells containing a given synthetase produces half of the maximum amount of unnatural protein containing the amino acid of interest. In this way the UP50 is dependent both on the synthetase and amino acid of interest. This value is obtained by measuring the fluorescence of produced GFP at various concentrations of amino acids and fitting measured values to the curve:
UP is the measured fluorescence, [AA] is the amino acid concentration, and UPmax is the maximum protein produced. The methodology for obtaining UP50 and UPmax values is described below.
Non-inducing media starter cultures containing Tcn (25 μg/mL) and Kn (50 μg/mL) were grown overnight (37° C., 18 hrs). Starter cultures consisted of E. coli DH10B transformed with a pBK plasmid containing the synthetases of interest (R2-40, R2-74, and R2-84) and tRNA, as well as a pALS plasmid containing an amber codon interrupted GFP gene under control of an araBAD promoter. Starters were used to inoculate (30 μL) autoinducing media (3 mL) containing Tcn (25 μg/mL), Kn (50 μg/mL), and Tet-v3.0 at various concentrations. Tet-v3.0 concentrations were varied from 0.005 mM to 1 mM with duplicates for each concentration. As a control, media was inoculated in duplicate containing no amino acid. To aid in dissolution, 30 μL of N,N-dimethyl formamide (DMF) was added to the Tet-v3.0 prior to addition to media.
The fluorescence and optical density of the media was measured after 24, 36, and 48 hrs. The fluorescence normalized to the optical density was plotted across Tet-v3.0 concentrations and used to calculate the UP50 and UPmax for individual synthetases (see FIG. 16. FIG. 16 compares UP50 titration curves for three Tet-v3.0-methyl incorporating synthetases: R2-40, R2-74, and R2-84. UP50 and UPmax values are obtained from the fit of the curves. The R2-74 synthetase was moved into eukaryotic plasmids for protein expression.

B1: R2-40: M. barkeri PylRS synthetase hit for Tet-v3.0: N311G, C313A, K296R (protein, UniProt Q46E77 1-419, looked up, variant N311G C313A K296R)
Pyrrolysine--tRNA ligase: MDKKPLDVLISATGLWMSRTGTLHKIKHYEVSRSKIYIEMACGDHLVVNNSRSCRTARAFRHHKYRKTCKRCRVSDEDINNFLTRSTEGKTSVKVKVVSAPKVKKAMPKSVSRAPKPLENPVSAKASTDTSRSVPSPAKSTPNSPVPTSAPAPSLTRSQLDRVEALLSPEDKISLNIAKPFRELESELVTRRKNDFQRLYTNDREDYLGKLERDITKFFVDRDFLEIKSPILIPAEYVERMGINNDTELSKQIFRVDKNLCLRPMLAPTLYNYLRKLDRILPDPIKIFEVGPCYRRESDGKEHLEEFTMVGFAQMGSGCTRENLESLIKEFLDYLEIDFEIVGDSCMVYGDTLDIMHGDLELSSAVVGPVPLDREWGIDKPWIGAGFGLERLLKVMHGFKNIKRASRSESYYNGISTNL
In turn, B1 came in with a UPmax of 540.

B2: R2-74: M. barkeri PylRS synthetase hit for Tet-v3.0: L270G, N311G, C313S (protein, UniProt Q46E77 1-419, looked up, variant L270G N311G C313S)
Pyrrolysine--tRNA ligase: MDKKPLDVLISATGLWMSRTGTLHKIKHYEVSRSKIYIEMACGDHLVVNNSRSCRTARAFRHHKYRKTCKRCRVSDEDINNFLTRSTEGKTSVKVKVVSAPKVKKAMPKSVSRAPKPLENPVSAKASTDTSRSVPSPAKSTPNSPVPTSAPAPSLTRSQLDRVEALLSPEDKISLNIAKPFRELESELVTRRKNDFQRLYTNDREDYLGKLERDITKFFVDRDFLEIKSPILIPAEYVERMGINNDTELSKQIFRVDKNLCLRPMLAPTGYNYLRKLDRILPDPIKIFEVGPCYRKESDGKEHLEEFTMVGFSQMGSGCTRENLESLIKEFLDYLEIDFEIVGDSCMVYGDTLDIMHGDLELSSAVVGPVPLDREWGIDKPWIGAGFGLERLLKVMHGFKNIKRASRSESYYNGISTNL
B2: the UPmax is recorded as 400.

B3: R2-84: M. barkeri PylRS synthetase hit for Tet-v3.0: L270G, N311G, C313A, R263C (protein, UniProt Q46E77 1-419, looked up, variant L270G N311G C313A R263C)
Pyrrolysine--tRNA ligase: MDKKPLDVLISATGLWMSRTGTLHKIKHYEVSRSKIYIEMACGDHLVVNNSRSCRTARAFRHHKYRKTCKRCRVSDEDINNFLTRSTEGKTSVKVKVVSAPKVKKAMPKSVSRAPKPLENPVSAKASTDTSRSVPSPAKSTPNSPVPTSAPAPSLTRSQLDRVEALLSPEDKISLNIAKPFRELESELVTRRKNDFQRLYTNDREDYLGKLERDITKFFVDRDFLEIKSPILIPAEYVERMGINNDTELSKQIFRVDKNLCLCPMLAPTGYNYLRKLDRILPDPIKIFEVGPCYRKESDGKEHLEEFTMVGFAQMGSGCTRENLESLIKEFLDYLEIDFEIVGDSCMVYGDTLDIMHGDLELSSAVVGPVPLDREWGIDKPWIGAGFGLERLLKVMHGFKNIKRASRSESYYNGISTNL
Molecule B3 yielded a UPmax of 517.
